Results reported in publication PMC12959268, “Mapping the nonribosomal specificity code through promiscuity-guided A-domain engineering” (Chemical Science, 2026).
Numbering of substitutions follows the chain as printed. Names and notes keep the numbering of the source.

B1: SrfAC (Bacillus subtilis subsp. subtilis str. 168) (protein)
chain: MSQFSKDQVQDMYYLSPMQEGMLFHAILNPGQSFYLEQITMKVKGSLNIKCLEESMNVIMDRYDVFRTVFIHEKVKRPVQVVLKKRQFHIEEIDLTHLTGSEQTAKINEYKEQDKIRGFDLTRDIPMRAAIFKKAEESFEWVWSYHHIILDGWCFGIVVQDLFKVYNALREQKPYSLPPVKPYKDYIKWLEKQDKQASLRYWREYLEGFEGQTTFAEQRKKQKDGYEPKELLFSLSEAETKAFTELAKSQHTTLSTALQAVWSVLISRYQQSGDLAFGTVVSGRPAEIKGVEHMVGLFINVVPRRVKLSEGITFNGLLKRLQEQSLQSEPHQYVPLYDIQSQADQPKLIDHIIVFENYPLQDAKNEESSENGFDMVDVHVFEKSNYDLNLMASPGDEMLIKLAYNENVFDEAFILRLKSQLLTAIQQLIQNPDQPVSTINLVDDREREFLLTGLNPPAQAHETKPLTYWFKEAVNANPDAPALTYSGQTLSYRELDEEANRIARRLQKHGAGKGSVVALYTKRSLELVIGILGVLKAGAAYLPVDPKLPEDRISYMLADSAAACLLTHQEMKEQAAELPYTGTTLFIDDQTRFEEQASDPATAIDPNDPAYIMYTSGTTGKPKGNITTHANIQGLVKHVDYMAFSDQDTFLSVSNYAFDAFTFDFYASMLNAARLIIADEHTLLDTERLTDLILQENVNVMFATTALFNLLTDAGEDWMKGLRCILFGGERASVPHVRKALRIMGPGKLINCYGPTEGTVFATAHVVHDLPDSISSLPIGKPISNASVYILNEQSQLQPFGAVGELCISGMGVSKGYVNRADLTKEKFIENPFKPGETLYRTGDLARWLPDGTIEYAGRIDDQVKIRGHRIELEEIEKQLQEYPGVKDAVVVADRHESGDASINAYLVNRTQLSAEDVKAHLKKQLPAYMVPQTFTFLDELPLTTNGKVNKRLLPKPDQDQLAEEWIGPRNEMEETIAQIWSEVLGRKQIGIHDDFFALGGHSLKAMTAASRIKKELGIDLPVKLLFEAPTIAGISAYLKNGGSDGLQDVTIMNQDQEQIIFAFPPVLGYGLMYQNLSSRLPSYKLCAFDFIEEEDRLDRYADLIQKLQPEGPLTLFGYSAGCSLAFEAAKKLEEQGRIVQRIIMVDSYKKQGVSDLDGRTVESDVEALMNVNRDNEALNSEAVKHGLKQKTHAFYSYYVNLISTGQVKADIDLLTSGADFDMPEWLASWEEATTGVYRVKRGFGTHAEMLQGETLDRNAEILLEFLNTQTVTVS
notes: full module C-A-T-TE, C-terminal His6 tag, holo form, from pTrc99a-srfAC in E. coli HM0079
B2: SrfAC (Bacillus subtilis subsp. subtilis str. 168; A660V/C752A/F702S) (protein)
chain: B1 chain with A660V, F702S, C752A
notes: as for B1

Key:
Assay in all cases: MesG/hydroxylamine adenylation assay (pyrophosphate release)
Format in all cases: biochemical, Bacillus subtilis
Conditions in all cases: 5 mM ATP, 5 mM MgCl2, 150 mM hydroxylamine, pH 7.6, 30 °C
[1] = substrate: CC(C)C[C@H](N)C(=O)O
[2] = substrate: CSCC[C@H](N)C(=O)O
[3] = substrate: N[C@@H](Cc1ccccc1)C(=O)O

Row | Protein | Km [1] [µM] | Km [2] [µM] | Km [3] [µM]
1 | B1 | 13 ± 1 | – | –
2 | B2 | 510 ± 50 | 4600 ± 900 | 1300 ± 100
